In the supplement of paper PMC10126150:
± gives the standard deviation of the averaged measurements.

System: ATP
Assay: switch fluorescence ratio, 500 uM ATP over buffer (Cy3 cluster intensity, sum of 5 cycles each) (fold (ratio)); higher = stronger signal-on switching upon ATP binding; sequences stand for … in TCGTCGGCAGCGTCAGATGTGTATAAGAGACAGTTTTTTTTTTTTTTTTTTTTTTTTT…TC
Details: aptamer strand: ATP DNA aptamer (quencher-CACCTGGGGGAGTATTGCGGAGGAAGG + anchor), 100 nM annealed; ATP concentration: 500 uM
Summary of the method: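 Five buffer/ATP imaging cycles were run on Cy3-labelled switching-strand clusters on a modified Illumina MiSeq flow-cell, with NaOH stripping and re-annealing between cycles. In each cycle, clusters annealed to 100 nM quencher-labelled ATP aptamer were imaged in selection buffer, then after 15 min with 500 uM ATP at 22 °C. Per cluster, the fluorescence ratio is summed target-cycle over summed buffer-cycle Cy3 intensity, averaged per switch-domain sequence. Only clusters within 100-1000 RFU were kept.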
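Also: ATP exposure 15 min at 22 °C before imaging.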

Row | Sequence | switch fluorescence ratio
1 | TGTGGGAATT | 1.01 ± 0.049
2 | TGTGGGATGT | 0.9704 ± 0.0039
3 | TGTGGGCAAT | 1.56 ± 0.77
4 | TGTGGGCAGT | 1.02 ± 0.03
5 | TGTGGGCGGA | 1.001 ± 0.0079
6 | TGTGGGGATT | 1.02 ± 0.032
7 | TGTGGGGCGG | 1.01 ± 0.051
8 | TGTGGGGGCA | 0.9953 ± 0.0057
9 | TGTGGGGGCG | 1.01 ± 0.017
10 | TGTGGGGGGT | 0.992 ± 0.027
11 | TGTGGGTTCC | 1.06 ± 0.11
12 | TGTGGTAGGT | 1.01 ± 0.057
13 | TGTGGTTGGT | 1.01 ± 0.032
14 | TGTGGTTTTG | 0.9586 ± 0.0042
15 | TGTGTAAGAC | 1.16 ± 0.022
16 | TGTGTATCGG | 0.958 ± 0.034
17 | TGTGTATGGT | 1.01 ± 0.022
18 | TGTGTATTGG | 1 ± 0.045
19 | TGTGTATTTT | 0.992 ± 0.028
20 | TGTGTCAGTG | 1.01 ± 0.081
21 | TGTGTGAAAA | 1 ± 0.032
22 | TGTGTGGCGC | 1.02 ± 0.032
23 | TGTGTGGGGA | 1.01 ± 0.027
24 | TGTGTGGGTC | 0.991 ± 0.028
25 | TGTGTGTGAA | 0.996 ± 0.035

Row | Sequence | switch fluorescence ratio
26 | TGTGTGTGGG | 1.03 ± 0.012
27 | TGTGTTCCCT | 0.982 ± 0.028
28 | TGTGTTCCTT | 1 ± 0.018
29 | TGTGTTTGTT | 0.998 ± 0.017
30 | TGTTAAAATT | 0.969 ± 0.063
31 | TGTTAAGGAA | 1.02 ± 0.029
32 | TGTTAATAAC | 1 ± 0.052
33 | TGTTAATATT | 0.989 ± 0.018
34 | TGTTAATGGT | 0.994 ± 0.025
35 | TGTTAATGTG | 1.004 ± 0.0038
36 | TGTTAATTGA | 1.01 ± 0.015
37 | TGTTACCTGA | 1.058 ± 0.01
38 | TGTTACTCGT | 1.03 ± 0.0012
39 | TGTTAGAACG | 1.02 ± 0.015
40 | TGTTAGATGA | 0.976 ± 0.013
41 | TGTTAGATTT | 1.05 ± 0.19
42 | TGTTAGGGGC | 0.98 ± 0.046
43 | TGTTAGTCTT | 0.969 ± 0.057
44 | TGTTAGTTTT | 0.981 ± 0.013
45 | TGTTATATTG | 1 ± 0.035
46 | TGTTCCAATA | 1.03 ± 0.024
47 | TGTTCCGACT | 1.05 ± 0.051
48 | TGTTCCGCCC | 2.012 ± 0.0024
49 | TGTTCCGGGA | 1.04 ± 0.023
50 | TGTTCCTTTT | 1.03 ± 0.023

Row | Sequence | switch fluorescence ratio
51 | TGTTCGGTGT | 1.008 ± 0.0049
52 | TGTTCTAGTT | 1.01 ± 0.015
53 | TGTTCTTATA | 0.993 ± 0.026
54 | TGTTGAAATT | 1.03 ± 0.077
55 | TGTTGAAGGG | 1.01 ± 0.014
56 | TGTTGAGGCG | 0.981 ± 0.015
57 | TGTTGAGTTT | 0.994 ± 0.027
58 | TGTTGATCAG | 0.982 ± 0.03
59 | TGTTGCAGTT | 1.03 ± 0.02
60 | TGTTGCCAAT | 1.01 ± 0.029
61 | TGTTGCGCTT | 1.033 ± 0.007
62 | TGTTGCGGGG | 0.995 ± 0.038
63 | TGTTGCGTTA | 0.985 ± 0.021
64 | TGTTGCTGGA | 1 ± 0.03
65 | TGTTGGACGG | 1.07 ± 0.037
66 | TGTTGGACGT | 1.036 ± 0.0024
67 | TGTTGGAGAG | 1.02 ± 0.02
68 | TGTTGGAGGG | 1.04 ± 0.027
69 | TGTTGGAGGT | 1.02 ± 0.045
70 | TGTTGGGGAA | 0.9676 ± 0.0074
71 | TGTTGTATGT | 0.994 ± 0.015
72 | TGTTGTCGGT | 0.988 ± 0.063
73 | TGTTGTGTGG | 1.02 ± 0.027
74 | TGTTGTGTGT | 0.985 ± 0.028
75 | TGTTGTTATC | 0.974 ± 0.038

Row | Sequence | switch fluorescence ratio
76 | TGTTGTTGGG | 0.9946 ± 0.0087
77 | TGTTGTTTGA | 0.991 ± 0.016
78 | TGTTTAAAAA | 0.987 ± 0.025
79 | TGTTTAAACG | 1.025 ± 0.005
80 | TGTTTAATTC | 1.3 ± 0.39
81 | TGTTTAATTG | 0.97673 ± 0.0004
82 | TGTTTAGTTT | 1.01 ± 0.033
83 | TGTTTATAAT | 0.99 ± 0.013
84 | TGTTTATTTC | 1.03 ± 0.08
85 | TGTTTATTTG | 0.965 ± 0.017
86 | TGTTTCAAGT | 0.973 ± 0.064
87 | TGTTTCGTGG | 0.971 ± 0.02
88 | TGTTTCTAGG | 0.979 ± 0.029
89 | TGTTTCTGGT | 0.969 ± 0.038
90 | TGTTTGGGAA | 1 ± 0.038
91 | TGTTTGGGTG | 1.08 ± 0.11
92 | TGTTTGGTC | 0.997 ± 0.013
93 | TGTTTGTGAT | 1.003 ± 0.0098
94 | TGTTTTAAAT | 0.978 ± 0.03
95 | TGTTTTAAGG | 1.009 ± 0.0081
96 | TGTTTTAGGT | 1.02 ± 0.029
97 | TGTTTTAGT | 0.992 ± 0.024
98 | TGTTTTATCT | 0.9857 ± 0.0073
99 | TGTTTTCCCT | 0.979 ± 0.053
100 | TGTTTTGCGT | 1.01 ± 0.037
